These results are taken from patent publication US20230212587A1, “Mutant Hydroxyphenylpyruvate Dioxygenase Polypeptide, Encoding Gene Thereof and Use Therefor” (Beijing Dabeinong Biotechnology Co., Ltd., priority 2019, published 2023).

The test has as its system Arabidopsis thaliana T1 plants. Description: Topramezone tolerance of transgenic Arabidopsis thaliana T1 plants (pesticide damage grade by bleached leaf area, score, resistance evaluation). The class given is in vivo. Conditions: HPPDs from different species, 7 DAT; for Classification and statistics of pesticide damage grade Grade 0 / Classification and statistics of pesticide damage grade Grade 1 / Classification and statistics of pesticide damage grade Grade 2 / Classification and statistics of pesticide damage grade Grade 3: number of plants (of 16) in this grade; for Scores: score for pesticide damage 0-100. The method, boiled down: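 Herbicide tolerance was judged per plant on a bleaching scale (grade 0 no bleaching to grade 3 fully bleached) 7 DAT. Topramezone doses were 0, 25, 50 and 100 g ai/ha on 18-day-old T1 and wild-type plants.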

B1: CaHPPD-02: native Cicer arietinum HPPD, SEQ ID NO: 81 (protein, listed as Cicer arietinum)
chain: MGTIETQTGFKLVGFNNFVRTNPKSDRFKVKRFHHVEFWCPDATNTARRFSWGLGMPIVAKSDLSTGNQTHASYLLRSGDLNFLFTAAYSPSISLSAPHPTASIPSFSAPTSFAFSASHGLGVRAVAIEVDDAEFAYTTSVNHGAIPSSPPVVLDNRVKLAEVQLYGDVVLRYVSYNDPIETSNPNPNHWFLPGFEPVEETSSNQSIDFGIQRLDHAVGNVPELSSALNYVKQFTGFHEFAEFTAEDVGTSESGLNSTVLANNEETVLLPMNEPVYGTKRKSQIQTYLEHNEGAGLQHLALMSNDIFKTLREMRKRSGIGGFEFMPSPPPTYYSNLKKRVGDVLNDEQIKECEELGILVDKDDQGTLLQIFTKPVGDRPTIFIEIIQRVGCMLKDDEGKEYQKGGCGGFGKGNFSELFKSIEEYEKTLEIKRTA
modifications: CaHPPD Amino Acid Sequence
In the case of B1, where the note is “topramezone 25 g ai/ha (1x)”, the “Classification and statistics of pesticide damage grade Grade 0” value was determined as 0; the “Classification and statistics of pesticide damage grade Grade 1” value came out at 0; the “Classification and statistics of pesticide damage grade Grade 2” value is listed as 0; the “Classification and statistics of pesticide damage grade Grade 3” value is on record as 16. For the setting “topramezone 25 g ai/ha (1x)”, the Scores stood at 100 and the Resistance evaluation entry is reported as “non-resistant (non-resistant plants (scores 68-100))”. Further, where the note is “topramezone 100 g ai/ha (4x)”, the “Classification and statistics of pesticide damage grade Grade 0” value stood at 0; the “Classification and statistics of pesticide damage grade Grade 1” value came out at 0; the “Classification and statistics of pesticide damage grade Grade 2” value turned out to be 0; the “Classification and statistics of pesticide damage grade Grade 3” value was 16. For the setting “topramezone 100 g ai/ha (4x)”, the Scores is listed as 100 and the Resistance evaluation entry is reported as “non-resistant (non-resistant plants (scores 68-100))”.

B2: GmHPPD-02: native Glycine max HPPD, SEQ ID NO: 75 (protein)
chain: MPMYTPSLSAPSSNHIQPSVTLPLYITTTKLNLKQQHHTTPMPIPMCNEIQAQAQAQAQPGFKLVGFKNFVRTNPKSDRFQVNRFHHIEFWCTDATNASRRFSWGLGMPIVAKSDLSTGNQIHASYLLRSGDLSFLFSAPYSPSLSAGSSAASSASIPSFDAATCLAFAAKHGFGVRAIALEVADAEAAFSASVAKGAEPASPPVLVDDRTGFAEVRLYGDVVLRYVSYKDAAPQAPHADPSRWFLPGFEAAASSSSFPELDYGIRRLDHAVGNVPELAPAVRYLKGFSGFHEFAEFTAEDVGTSESGLNSVVLANNSETVLLPLNEPVYGTKRKSQIETYLEHNEGAGVQHLALVTHDIFTTLREMRKRSFLGGFEFMPSPPPTYYANLHNRAADVLTVDQIKQCEELGILVDRDDQGTLLQIFTKPVGDRPTIFIEIIQRIGCMVEDEEGKVYQKGACGGFGKGNFSELFKSIEEYEKTLEAKRTA
modifications: Glycine max; GmHPPD Amino Acid Sequence
For B2, where the note is “topramezone 25 g ai/ha (1x)”, the “Classification and statistics of pesticide damage grade Grade 0” value was 0; the “Classification and statistics of pesticide damage grade Grade 1” value came to 0; the “Classification and statistics of pesticide damage grade Grade 2” value came to 0; the “Classification and statistics of pesticide damage grade Grade 3” value was determined as 16. Moreover, under “topramezone 25 g ai/ha (1x)”, the Scores is 100 and the Resistance evaluation entry is “non-resistant (non-resistant plants (scores 68-100))”. Where the note is “topramezone 100 g ai/ha (4x)”, the “Classification and statistics of pesticide damage grade Grade 0” value was 0; the “Classification and statistics of pesticide damage grade Grade 1” value was 0; the “Classification and statistics of pesticide damage grade Grade 2” value was 0; the “Classification and statistics of pesticide damage grade Grade 3” value amounted to 16. Further, for the setting “topramezone 100 g ai/ha (4x)”, the Scores is reported as 100 and the Resistance evaluation result is “non-resistant (non-resistant plants (scores 68-100))”.

B3: GmHPPDm-F372A-02: Glycine max HPPD mutant F372A, SEQ ID NO: 78 (protein)
chain: MPMYTPSLSAPSSNHIQPSVTLPLYITTTKLNLKQQHHTTPMPIPMCNEIQAQAQAQAQPGFKLVGFKNFVRTNPKSDRFQVNRFHHIEFWCTDATNASRRFSWGLGMPIVAKSDLSTGNQIHASYLLRSGDLSFLFSAPYSPSLSAGSSAASSASIPSFDAATCLAFAAKHGFGVRAIALEVADAEAAFSASVAKGAEPASPPVLVDDRTGFAEVRLYGDVVLRYVSYKDAAPQAPHADPSRWFLPGFEAAASSSSFPELDYGIRRLDHAVGNVPELAPAVRYLKGFSGFHEFAEFTAEDVGTSESGLNSVVLANNSETVLLPLNEPVYGTKRKSQIETYLEHNEGAGVQHLALVTHDIFTTLREMRKRSFLGGFEFMPSPPPTYYANLHNRAADVLTVDQIKQCEELGILVDRDDQGTLLQIATKPVGDRPTIFIEIIQRIGCMVEDEEGKVYQKGACGGFGKGNFSELFKSIEEYEKTLEAKRTA
modifications: GmHPPDm-F372A Amino Acid Sequence
On to B3, for which, for the setting “topramezone 25 g ai/ha (1x)”, the “Classification and statistics of pesticide damage grade Grade 0” value was 0; the “Classification and statistics of pesticide damage grade Grade 1” value worked out at 12; the “Classification and statistics of pesticide damage grade Grade 2” value amounted to 4; the “Classification and statistics of pesticide damage grade Grade 3” value amounted to 0. Moreover, where the note is “topramezone 25 g ai/ha (1x)”, the Scores came to 42 and the Resistance evaluation entry is “poorly resistant (poorly resistant plants (scores 34-67))”. Further, where the note is “topramezone 100 g ai/ha (4x)”, the “Classification and statistics of pesticide damage grade Grade 0” value stood at 0; the “Classification and statistics of pesticide damage grade Grade 1” value came out at 0; the “Classification and statistics of pesticide damage grade Grade 2” value came out at 0; the “Classification and statistics of pesticide damage grade Grade 3” value came out at 16. For the same molecule, under “topramezone 100 g ai/ha (4x)”, the Scores worked out at 100 and the Resistance evaluation entry is reported as “non-resistant (non-resistant plants (scores 68-100))”.

B4: GsHPPD-02: native Gossypium hirsutum HPPD, SEQ ID NO: 33 (protein, listed as Gossypium hirsutum)
chain: MVQTNQSGSGNDFKLVGFSNFVRSNPKSDRFTVKRFHHIEFWCTDATNVARRFSWGLGMQFVAKSDLSTGNLTHASYLLRSRDLNFLFTAPYSPSIAVAQNLSPQSTASIPSFDHSLCRSFAATHGLGVRAIAIEVDDAETAFTTSVTHGALPFCPPTPLGDVATIAEVKLYGDVVLRYVSYTTTINSDHDFLPGFEKIEDTLSYPLDYGLRRLDHAVGNVPELGPAVSYVKSFTGFHEFAEFTAEDVGTSESGLNSVVLANNEEMVLLPMNEPVFGTKRKSQIQTYLEHNEGAGVQHLALVSEDIFKTLREMRKRSFVGGFEFMPSPPPTYYKKLKQRAGDILSDEQIKECEELGILVDRDDQGTLLQIFTKPVGDRPTIFIEIIQRIGCMVKDEEGKQYQKGGCGGFGKGNFSELFKSIEEYEKSLEAKQSQNP
modifications: GsHPPD Amino Acid Sequence
On to B4, for which, where the note is “topramezone 25 g ai/ha (1x)”, the “Classification and statistics of pesticide damage grade Grade 0” value amounted to 0; the “Classification and statistics of pesticide damage grade Grade 1” value is 0; the “Classification and statistics of pesticide damage grade Grade 2” value was determined as 0; the “Classification and statistics of pesticide damage grade Grade 3” value was determined as 16. For the same molecule, for the setting “topramezone 25 g ai/ha (1x)”, the Scores was found to be 100 and the Resistance evaluation result is given as “non-resistant (non-resistant plants (scores 68-100))”. Under “topramezone 100 g ai/ha (4x)”, the “Classification and statistics of pesticide damage grade Grade 0” value was found to be 0; the “Classification and statistics of pesticide damage grade Grade 1” value worked out at 0; the “Classification and statistics of pesticide damage grade Grade 2” value worked out at 0; the “Classification and statistics of pesticide damage grade Grade 3” value is given as 16. Further, for the setting “topramezone 100 g ai/ha (4x)”, the Scores amounted to 100 and the Resistance evaluation entry is “non-resistant (non-resistant plants (scores 68-100))”.

B5: GsHPPDm-F372A-02: Gossypium hirsutum HPPD mutant F372A, SEQ ID NO: 36 (protein)
chain: MVQTNQSGSGNDFKLVGFSNFVRSNPKSDRFTVKRFHHIEFWCTDATNVARRFSWGLGMQFVAKSDLSTGNLTHASYLLRSRDLNFLFTAPYSPSIAVAQNLSPQSTASIPSFDHSLCRSFAATHGLGVRAIAIEVDDAETAFTTSVTHGALPFCPPTPLGDVATIAEVKLYGDVVLRYVSYTTTINSDHDFLPGFEKIEDTLSYPLDYGLRRLDHAVGNVPELGPAVSYVKSFTGFHEFAEFTAEDVGTSESGLNSVVLANNEEMVLLPMNEPVFGTKRKSQIQTYLEHNEGAGVQHLALVSEDIFKTLREMRKRSFVGGFEFMPSPPPTYYKKLKQRAGDILSDEQIKECEELGILVDRDDQGTLLQIATKPVGDRPTIFIEIIQRIGCMVKDEEGKQYQKGGCGGFGKGNFSELFKSIEEYEKSLEAKQSQNP
modifications: GsHPPDm-F372A Amino Acid Sequence
Take B5: for the setting “topramezone 25 g ai/ha (1x)”, the “Classification and statistics of pesticide damage grade Grade 0” value is 16; the “Classification and statistics of pesticide damage grade Grade 1” value was found to be 0; the “Classification and statistics of pesticide damage grade Grade 2” value came out at 0; the “Classification and statistics of pesticide damage grade Grade 3” value is 0. Also, under “topramezone 25 g ai/ha (1x)”, the Scores amounted to 0 and the Resistance evaluation result is on record as “highly resistant (highly resistant plants (scores 0-15))”. Further, under “topramezone 100 g ai/ha (4x)”, the “Classification and statistics of pesticide damage grade Grade 0” value stood at 0; the “Classification and statistics of pesticide damage grade Grade 1” value came to 0; the “Classification and statistics of pesticide damage grade Grade 2” value was 0; the “Classification and statistics of pesticide damage grade Grade 3” value amounted to 16. Under “topramezone 100 g ai/ha (4x)”, the Scores came to 100 and the Resistance evaluation result is recorded as “non-resistant (non-resistant plants (scores 68-100))”.
